Experimental data reported in article PMC7203548.

Key:
[1] = molecular target: OTK1-5 K237A ectodomain, biotinylated (pHL-Avitag3) (Drosophila melanogaster) (UniProt Q6AWJ9); assay: SPR; equilibrium, apparent KD; biotinylated OTK immobilised on SA chip from dialysed conditioned medium; Biacore T200, PBS, 0.05% Tween 20, 25°C
[2] = molecular target: PlexA_(ecto) (full-length ectodomain of Drosophila Plexin A, all ten domains, residues 28-1272), biotinylated (Drosophila) (UniProt Q9V491); assay: SPR; equilibrium, apparent KD; biotinylated PlexA constructs immobilised on SA chip from dialysed conditioned medium; Biacore T200, PBS, 0.05% Tween 20, 25°C
Chain of UniProt Q9V491 (Q9V491 entry or part of it): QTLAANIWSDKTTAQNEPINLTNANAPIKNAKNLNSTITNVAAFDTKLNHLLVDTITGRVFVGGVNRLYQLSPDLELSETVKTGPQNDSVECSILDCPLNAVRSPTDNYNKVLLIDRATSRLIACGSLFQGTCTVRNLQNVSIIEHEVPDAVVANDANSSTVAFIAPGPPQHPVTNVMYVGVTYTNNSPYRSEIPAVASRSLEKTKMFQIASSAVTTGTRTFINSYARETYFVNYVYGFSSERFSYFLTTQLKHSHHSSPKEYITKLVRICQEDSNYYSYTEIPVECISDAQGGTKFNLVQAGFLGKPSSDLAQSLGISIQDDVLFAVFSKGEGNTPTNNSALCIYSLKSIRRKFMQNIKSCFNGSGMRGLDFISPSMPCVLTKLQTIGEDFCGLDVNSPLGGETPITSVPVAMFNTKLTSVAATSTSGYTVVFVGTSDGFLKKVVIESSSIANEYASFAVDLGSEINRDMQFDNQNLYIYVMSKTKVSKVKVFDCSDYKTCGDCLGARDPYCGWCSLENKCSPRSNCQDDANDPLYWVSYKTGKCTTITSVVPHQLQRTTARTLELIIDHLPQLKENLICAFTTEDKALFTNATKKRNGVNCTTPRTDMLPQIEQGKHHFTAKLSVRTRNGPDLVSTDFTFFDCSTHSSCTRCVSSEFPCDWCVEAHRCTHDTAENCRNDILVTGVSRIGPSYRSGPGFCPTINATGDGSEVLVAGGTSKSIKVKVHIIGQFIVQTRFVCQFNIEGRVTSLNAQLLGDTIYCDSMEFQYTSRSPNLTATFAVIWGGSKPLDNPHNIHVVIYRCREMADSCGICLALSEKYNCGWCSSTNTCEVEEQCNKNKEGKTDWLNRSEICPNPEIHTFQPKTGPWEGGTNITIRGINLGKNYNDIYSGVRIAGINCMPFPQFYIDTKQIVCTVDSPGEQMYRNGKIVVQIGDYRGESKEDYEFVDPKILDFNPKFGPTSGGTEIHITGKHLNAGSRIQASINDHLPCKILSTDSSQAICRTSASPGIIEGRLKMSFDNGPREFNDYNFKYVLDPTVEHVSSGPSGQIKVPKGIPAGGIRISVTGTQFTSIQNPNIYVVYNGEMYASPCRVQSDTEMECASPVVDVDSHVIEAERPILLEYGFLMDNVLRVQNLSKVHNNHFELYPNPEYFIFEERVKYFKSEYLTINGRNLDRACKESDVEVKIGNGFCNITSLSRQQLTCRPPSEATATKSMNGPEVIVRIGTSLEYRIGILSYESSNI

Chain of UniProt Q6AWJ9 (Q6AWJ9 23-580 K237A): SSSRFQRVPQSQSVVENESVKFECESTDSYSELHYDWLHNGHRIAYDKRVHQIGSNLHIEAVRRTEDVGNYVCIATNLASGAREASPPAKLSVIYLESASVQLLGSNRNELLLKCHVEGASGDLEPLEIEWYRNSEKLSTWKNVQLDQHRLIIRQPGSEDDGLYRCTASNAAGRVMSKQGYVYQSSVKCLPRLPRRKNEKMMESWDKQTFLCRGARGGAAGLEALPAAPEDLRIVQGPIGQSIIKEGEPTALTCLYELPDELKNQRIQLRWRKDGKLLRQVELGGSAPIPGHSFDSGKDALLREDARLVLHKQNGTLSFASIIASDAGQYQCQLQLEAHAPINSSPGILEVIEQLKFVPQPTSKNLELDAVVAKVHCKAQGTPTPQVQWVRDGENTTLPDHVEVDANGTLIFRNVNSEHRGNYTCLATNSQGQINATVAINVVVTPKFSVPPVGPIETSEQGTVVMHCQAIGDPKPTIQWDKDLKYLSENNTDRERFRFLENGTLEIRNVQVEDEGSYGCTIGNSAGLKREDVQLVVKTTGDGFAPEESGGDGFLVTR

Kd [1]: 4 µM | Kd [2]: 7.4 µM
Substance: Sema1a ectodomain (Drosophila semaphorin 1a) (from UniProt Q24322 1-899) (ligand)
